Results taken from patent US20110318339A1 (FABRUS, published 2011).
Numbering of substitutions follows the chain as printed. Numbers in names are those of the source.

B1: Fab H:APFF & L:NDH (Fab, V domains shown)
VH: QVQLVQSGAEVKKPGASVKVSCKASGYTFTSYYMHWVRQAPGQGLEWMGIINPSGGSTSYAQKFQGRVTMTRDTSTSTVYMELSSLRSEDTAVYYCAREEYAPFSAEYFQFWGQGTLVTVSS
VL: EIVLTQSPATLSLSPGERATLSCRASQNVDHYLAWYQQKPGQAPRLLIYDASNRATGIPARFSGSGSGTDFTLTISSLEPEDFAVYYCQQRSNWPPWTFGQGTKVEIKR
notes: Fab, kappa light chain; also called VH1-46_IGHD6-6*01_IGHJ1*01 S102A/S103P/S104F/H111F & L6_IGKJ1*01 S28N/S30D/S31H
B2: Fab H:APFF G56A & L:NDH (Fab, V domains shown)
VH: B1 VH with G56A
VL: B1 VL
notes: Fab, kappa light chain
B3: Fab H:APFF LTH & L:NDH (Fab, V domains shown)
VH: B1 VH with N52L, S54T, G56H
VL: B1 VL
notes: Fab, kappa light chain
B4: Fab H:APFF LTH & L:NDH LG (Fab, V domains shown)
VH: B1 VH with N52L, S54T, G56H
VL: B1 VL with S52L, A55G
notes: Fab, kappa light chain
B5: Fab VH5-51_IGHD5-18*01>3_IGHJ4*01 G100K/G104T & V3-4_IGLJ1*01 (Fab, V domains shown)
VH: EVQLVQSGAEVKKPGESLKISCKGSGYSFTSYWIGWVRQMPGKGLEWMGIIYPGDSDTRYSPSFQGQVTISADKSISTAYLQWSSLKASDTAMYYCARRKYSYTYDYFDYWGQGTLVTVSS
VL: QTVVTQEPSFSVSPGGTVTLTCGLSSGSVSTSYYPSWYQQTPGQAPRTLIYSTNTRSSGVPDRFSGSILGNKAALTITGAQADDESDYYCVLYMGSGISYVFGTGTKVTVL
notes: Fab made in E. coli: VH on CH1 with His6 and Flag tags (Plasmid A), VL on lambda CL (Plasmid E); also called H: KT & L: wt
B6: Fab VH5-51_IGHD5-18*01>3_IGHJ4*01 G100K/G104T & V3-4_IGLJ1*01 M94R/S96M (Fab, V domains shown)
VH: B5 VH
VL: B5 VL with M94R, S96M
notes: Fab made in E. coli: VH on CH1 with His6 and Flag tags (Plasmid A), VL on lambda CL (Plasmid E); also called H: KT & L: RM
B7: Fab VH5-51_IGHD5-18*01>3_IGHJ4*01 G100K/G104T S28R & V3-4_IGLJ1*01 (Fab, V domains shown)
VH: B5 VH with S28R
VL: B5 VL
notes: Fab made in E. coli: VH on CH1 with His6 and Flag tags (Plasmid A), VL on lambda CL (Plasmid E); also called H: KT S28R & L: wt
B8: Fab VH5-51_IGHD5-18*01>3_IGHJ4*01 G100K/G104T G24A/S28R/G35V & V3-4_IGLJ1*01 (Fab, V domains shown)
VH: B5 VH with G24A, S28R, G35V
VL: B5 VL
notes: Fab made in E. coli: VH on CH1 with His6 and Flag tags (Plasmid A), VL on lambda CL (Plasmid E); also called H: KT ARV & L: wt
B9: Fab VH5-51_IGHD5-18*01>3_IGHJ4*01 G100K/G104T G24T/S28R/G35V & V3-4_IGLJ1*01 M94R/S96M (Fab, V domains shown)
VH: B5 VH with G24T, S28R, G35V
VL: B5 VL with M94R, S96M
notes: Fab made in E. coli: VH on CH1 with His6 and Flag tags (Plasmid A), VL on lambda CL (Plasmid E); also called H: KT TRV & L: RM; KT TRV-V3-4 RM

target: T1, Recombinant Human DLL4 (Cat# 1506-D4/CF, R&D Systems) (human, UniProt Q9NR61 27-529); assay: ELISA, DLL4 coated
T1 construct: Bought protein; also called rHuman DLL4; hDLL4

fold increased affinity against Fab mutant APFF (H:APFF & L:wt) | fold greater affinity against H:APFF & L:wt | fold increased binding affinity against the antibody mutants with heavy chain H:APFF ALTH | Binder
4 fold | – | – | B1
– | 8 fold | – | B2
– | – | ~10 fold | B3
– | – | ~10 fold | B4

target: T2, recombinant human DLL4 (Cat# 1506-D4/CF, R&D Systems) (human, UniProt Q9NR61 27-529); assay: ELISA, DLL4 coated, Fab 20 nM
T2 construct: Bought protein; also called hDLL4; rHuman DLL4
Protocol: (§1) The plate was blocked by adding 1% BSA in Tris-buffered Saline Tween (TBST) and incubating for 1 hour at room temperature followed by washing 2 times with 150 μl TBST. A Fab antibody was serially diluted in 1% BSA in PBS. A 50 μl aliquot of each serial dilution was added, in triplicate, to each well and the plate was incubated for 1 hour at room temperature followed by washing 2 times with TBST. 50 μl of either goat anti-human kappa HRP conjugated secondary antibody (Cat # A7164-1 mL, Sigma-Aldrich) or goat anti-human lambda HRP conjugated secondary antibody (Cat # L1645-1 ml, Sigma-Aldrich), diluted 1:1000 in 1% BSA in PBS, was added to each well and the plate was incubated for 30 minutes at room temperature followed by washing 3 times with 200 μl TBST. Finally, 50 μl TMB one-component reagent (Cat # TMBW-1000-01, BioFax) was added and allowed to develop for 2 minutes at room temperature. The reaction was immediately halted by the addition of 50 μl 0.5M H₂SO₄ and the absorbance at 450 nm was measured using an ELISA plate reader.

ELISA absorbance at 450 nm | Binder
0.018 A450 | B5
0.087 A450 | B6
0.009 A450 | B7
0.054 A450 | B8
0.122 A450 | B9

target: T2, recombinant human DLL4 (Cat# …); assay: ELISA, DLL4 coated, Fab 25 nM
Protocol: as §1

ELISA absorbance at 450 nm | Binder
0.16 A450 | B5
0.2 A450 | B7

target: T2, recombinant human DLL4 (Cat# …); assay: ELISA, DLL4 coated, Fab 50 nM
Protocol: (§2) In this example, an ELISA binding assay was used to assess the dose-dependent binding of Fab antibodies to recombinant human DLL4 and recombinant mouse DLL4.
as §1

ELISA absorbance at 450 nm | Binder
0.18 A450 | B5
0.23 A450 | B7

target: T2, recombinant human DLL4 (Cat# …); assay: ELISA, DLL4 coated, Fab 100 nM
Protocol: as §2, §1

ELISA absorbance at 450 nm | Binder
0.18 A450 | B5
0.26 A450 | B7

target: T2, recombinant human DLL4 (Cat# …); assay: ELISA, DLL4 coated, Fab 0.74 nM
Protocol: as §1

ELISA absorbance at 450 nm | Binder
0.019 A450 | B5
0 A450 | B6
0 A450 | B7
0.008 A450 | B8
0.006 A450 | B9

target: T2, recombinant human DLL4 (Cat# …); assay: ELISA, DLL4 coated, Fab 2.22 nM
Protocol: as §1

ELISA absorbance at 450 nm | Binder
0.014 A450 | B5
0.007 A450 | B6
0 A450 | B7
0.002 A450 | B8
0.028 A450 | B9

target: T2, recombinant human DLL4 (Cat# …); assay: ELISA, DLL4 coated, Fab 6.67 nM
Protocol: as §1

ELISA absorbance at 450 nm | Binder
0.042 A450 | B5
0.023 A450 | B6
0.003 A450 | B7
0.025 A450 | B8
0.062 A450 | B9

target: T2, recombinant human DLL4 (Cat# …); assay: ELISA, DLL4 coated, Fab 12.5 nM
Protocol: as §2, §1

ELISA absorbance at 450 nm | Binder
0.18 A450 | B5
0.18 A450 | B7

target: T2, recombinant human DLL4 (Cat# …); assay: SPR (ProteOn), hDLL4 amine-coupled on chip
Protocol: In this example, the binding affinities of selected anti-DLL4 Fabs to recombinant human DLL4 (hDLL4, Cat# 1506-D4/CF, R&D Systems) were analyzed using Surface Plasmon Resonance (SPR) (Biosensor Tools, Salt Lake City, Utah). The Fabs analyzed include germline-derived antibodies and germline-modified DLL4 antibodies. Recombinant hDLL4 was immobilized on a SPR chip using amine coupling at three different surface densities. The Fabs were serially diluted 3-fold, with an initial concentration of 1 μM. Binding studies were run on a ProteOn system using a GLM sensor chip in 10 mM HEPES, pH 7.4, 150 mM NaCl, 0.01% Tween-20, and 0.1 mg/ml BSA at 25° C. The response data from each surface was globally fit to determine the binding constants.

Kd | koff | kon | Binder
114 nM | 0.0845 s⁻¹ | 740000 M⁻¹ s⁻¹ | B7
40.3 nM | 0.101 s⁻¹ | 2.53e+06 M⁻¹ s⁻¹ | B9
